Assay results published in patent US20110045489A1, “Polymerases for Incorporating Modified Nucleotides” (NEW ENGLAND BIOLABS, INC., priority 2008, published 2011).

Legend:
[1] = tested on: 3′-O-azidomethyl-dCTP; test: Titration assay, incorporation of 3′-O-azidomethyl-dCTP; type: biochemical; conditions: for 3′-O-azidomethyl-dCTP incorporation / termination of synthesis / relative 3′-O-azidomethyl-dCTP incorporation efficiency, rank order: 10:1 or 1:1 3′-O-azidomethyl-dCTP:dNTP, 30 minutes; for 3′-O-azidomethyl-dCTP incorporation / termination of synthesis: 72° C. (9° N) or 37° C.; for relative 3′-O-azidomethyl-dCTP incorporation efficiency, rank order: 72° C. or 37° C., FIG. 8; for effect of the mutations on 3′-O-azidomethyl-dCTP incorporation: versus parent exo- polymerase
Protocol: Reactions were also performed in the absence of terminators to ensure that synthesis by each DNA polymerase was sufficient to extend primers without premature termination (“dNTP” lanes). Reactions with Therminator™ (NEB, Inc., Ipswich, Mass.) and 9° N exo-L408P/Y409A/S411T DNA polymerase (SEQ ID NO:6) were incubated at 72° C. for 30 minutes. Reactions with E. coli Polymerase I (pol I) (NEB, Inc., Ipswich, Mass.), Sequenase™, (USB, Inc., Cleveland, Ohio), Mma exo- and Mma exo-L417P/Y418A/S420T were incubated at 37° C. for 30 minutes. Each band corresponds to a DNA fragment terminated by a 3′-azido-dCMP. Using a titration assay as described in Gardner and Jack (2002), the relative 3′-azido-dCTP incorporation efficiency was determined for a series of DNA polymerases.
Incorporation of 3′-O-azidomethyl-dCTP by various DNA polymerases was measured using the titration assay as described in Example 1. For each reaction, a ratio of either 10:1 or 1:1 3′-O-azidomethyl-dCTP:dNTP was used to generate a termination pattern. Each band corresponded to a DNA fragment terminated by a 3′-azido-dCMP. A control reaction lacking terminator (dNTP) which yielded large extension products gave assurance that the DNA polymerase was active, and that termination products resulted from terminator incorporation rather than incomplete polymerization. Reactions with Therminator™ (NEB, Inc., Ipswich, Mass.) and 9° N exo-L408P/Y409A/S411T DNA polymerase were incubated at 72° C. for 30 minutes. Reactions with E. coli Polymerase I (pol I) (NEB, Inc., Ipswich, Mass.), Sequenase™ (USB, Inc., Cleveland, Ohio), Mma exo- and Mma exo-L417P/Y418A/S420T were conducted at 37° C. for 30 mintues. Therminator™ (NEB, Inc., Ipswich, Mass.) DNA polymerase was assayed with a 1:1 ratio of acyCTP as control.

[2] = tested on: modified nucleotide; test: Screen of DNA polymerase mutants for modified nucleotide incorporation; type: biochemical
Excerpt: In order to determine the extent of 3′-modified nucleotide incorporation by archaeon DNA polymerases, the titration assay described by Gardner and Jack (2002) was used. In this assay, the efficiency of incorporation of chain terminators was judged by the size of the reaction products in a polymerization reaction. As the efficiency of chain-terminator incorporation increased, the average reaction product size decreased because polymerization was more often halted by terminator addition. By comparing the amount of terminator required to give the same spectrum of reaction products, the relative efficiency of incorporation of the test compounds with the different polymerases was determined.
A complex library of 9° N DNA polymerase mutants was screened for enhanced incorporation of 3′-azido-ddCTP. Several classes of 9° N DNA polymerase mutants were identified with enhanced terminator incorporation. 9° N exo-L408S/Y409A/P410V (Therminator III™, NEB, Inc., Ipswich, Mass.) was purified and characterized in more detail. 9° N DNA polymerase single mutants P410V, L408S, and Y409A and double mutants L408S/P410V, L408S/Y409A, and Y409A/P410V were also purified for comparison. Purification and characterization of DNA polymerase mutants was as described in Gardner and Jack, Nucleic Acids Res. 27:2545-2553 (1999).
A library of 9° N DNA polymerase mutants was constructed by PCR amplification of the polymerase genes using gene-specific primers or codon optimization and gene synthesis Czar et al. Trends Biotechnol 27(2): 63-72 (2009)). The ability to incorporate 3′-modified nucleotide terminators was evaluated by the titration assay for chain terminator incorporation efficiency as described by Gardner and Jack (2002).
Furthermore, the same assay was used to measure 3′-amino-ddCTP incorporation by 9° N exo-L408S/Y409A/P410V (FIG. 3) and to measure rates of incorporation (FIG. 4). Examples of mutants that increased modified nucleotide incorporation by at least two-fold were: […]

Molecule | relative 3′-O-azidomethyl-dCTP incorporation efficiency, rank order [1] | increase of modified nucleotide incorporation [2] | 3′-O-azidomethyl-dCTP incorporation / termination of synthesis [1] | effect of the mutations on 3′-O-azidomethyl-dCTP incorporation [1]
E. coli DNA polymerase I (pol I): commercial E. coli DNA polymerase I (NEB, Inc.) [reference compound] | – | – | failed to terminate synthesis | –
9° N D141A/E143A/N491L/Y494S: 9° N DNA polymerase mutant (protein, UniProt Q56366 1-775, looked up, variant D141A E143A N491L Y494S) DNA polymerase: MILDTDYITENGKPVIRVFKKENGEFKIEYDRTFEPYFYALLKDDSAIEDVKKVTAKRHGTVVKVKRAEKVQKKFLGRPIEVWKLYFNHPQDVPAIRDRIRAHPAVVDIYEYDIPFAKRYLIDKGLIPMEGDEELTMLAFAIATLYHEGEEFGTGPILMISYADGSEARVITWKKIDLPYVDVVSTEKEMIKRFLRVVREKDPDVLITYNGDNFDFAYLKKRCEELGIKFTLGRDGSEPKIQRMGDRFAVEVKGRIHFDLYPVIRRTINLPTYTLEAVYEAVFGKPKEKVYAEEIAQAWESGEGLERVARYSMEDAKVTYELGREFFPMEAQLSRLIGQSLWDVSRSSTGNLVEWFLLRKAYKRNELAPNKPDERELARRRGGYAGGYVKEPERGLWDNIVYLDFRSLYPSIIITHNVSPDTLNREGCKEYDVAPEVGHKFCKDFPGFIPSLLGDLLEERQKIKRKMKATVDPLEKKLLDYRQRAIKILALSFSGYYGYAKARWYCKECAESVTAWGREYIEMVIRELEEKFGFKVLYADTDGLHATIPGADAETVKKKAKEFLKYINPKLPGLLELEYEGFYVRGFFVTKKKYAVIDEEGKITTRGLEIVRRDWSEIAKETQARVLEAILKHGDVEEAVRIVKEVTEKLSKYEVPPEKLVIHEQITRDLRDYKATGPHVAVAKRLAARGVKIRPGTVISYIVLKGSGRIGDRAIPADEFDPTKHRYDAEYYIENQVLPAVERILKAFGYRKEDLRYQKTKQVGLGAWLKVKGKK | – | at least two-fold | – | –

Now from value to molecule, other results behind:

relative 3′-O-azidomethyl-dCTP incorporation efficiency, rank order [1] | increase of modified nucleotide incorporation [2] | Molecule | 3′-O-azidomethyl-dCTP incorporation / termination of synthesis [1] | effect of the mutations on 3′-O-azidomethyl-dCTP incorporation [1]
greater than Sequenase™ | – | Mma exo-: exonuclease minus DNA polymerase from Methanococcus maripaludis, SEQ ID NO:22 (protein, listed as Methanococcus maripaludis, (1)..(784) Exo-) MESLIDLDYNSDDLCIYLYLINSIIKEKDFKPYFYVNSTDKEQILEFLKDYEKKHKLDSEISKMIENIETVKKIVFDENYQEKELSKVTVKYPNNVKTVREILMEFERLYEYDIPFVRRYLIDNSVIPTSTWDFENNKKIDNKIPDFKTVSFAIAVYCNKEPNPKKDPIIMASFSSKDFNTVVSTKKFDHEKLEYVKDEKELIKRIIEILKEYDIIYTYNGDNFDFPYLKKRAESFGLELKLGKNDEKIKITKGGMNSKSYIPGRVHIDLYPIARRLLNLTKYRLENVTEALFDVKKVDVGHENIPKMWDNLDETLVEYSHQDAYYTQRIGEQFLPLEIMFSRVVNQSLYDINRMSSSQMVEYLLLKNSYKMGVIAPNRPSGKEYQKRIRSSYEGGYVKEPLKGIHEDIVSMDFLSLYPSIIMSHNLSPETIDCTCCSDEENGENEEILGHKFCKKSIGIIPKTLMDLINRRKKVKKVLREKAEKGEFDEEYQILDYEQRSIKVLANSHYGYLAFPMARWYSRDCAEITTHLGRQYIQKTIEEAENFGFKVIYADTDGFYSKWADDKEKLSKYELLEKTREFLKNINNTLPGEMELEFEGYFKRGIFVTKKKYALIDENEKITVKGLEVVRRDWSNVSKNTQKNVLNALLKEGSVENAKKVIQDTIKELKDGKVNNEDLLIHTQLTKRIEDYKTTAPHVEVAKKILKSGNRVNTGDVISYIITSGNKSISERAEILENAKNYDTNYYIENQILPPVIRLMEALGITKDELKDSKKQYTLHHFLK | failed to terminate synthesis | –
greater than Mma exo- | at least two-fold | Mma exo-L417P/Y418A/S420T: exonuclease minus mutant Mma DNA polymerase, SEQ ID NO:23 (protein, listed as Methanococcus maripaludis, (1)..(784) exo_ L417P/Y418A/S420T mutant) MESLIDLDYNSDDLCIYLYLINSIIKEKDFKPYFYVNSTDKEQILEFLKDYEKKHKLDSEISKMIENIETVKKIVFDENYQEKELSKVTVKYPNNVKTVREILMEFERLYEYDIPFVRRYLIDNSVIPTSTWDFENNKKIDNKIPDFKTVSFAIAVYCNKEPNPKKDPIIMASFSSKDFNTVVSTKKFDHEKLEYVKDEKELIKRIIEILKEYDIIYTYNGDNFDFPYLKKRAESFGLELKLGKNDEKIKITKGGMNSKSYIPGRVHIDLYPIARRLLNLTKYRLENVTEALFDVKKVDVGHENIPKMWDNLDETLVEYSHQDAYYTQRIGEQFLPLEIMFSRVVNQSLYDINRMSSSQMVEYLLLKNSYKMGVIAPNRPSGKEYQKRIRSSYEGGYVKEPLKGIHEDIVSMDFLSPAPTIIMSHNLSPETIDCTCCSDEENGENEEILGHKFCKKSIGIIPKTLMDLINRRKKVKKVLREKAEKGEFDEEYQILDYEQRSIKVLANSHYGYLAFPMARWYSRDCAEITTHLGRQYIQKTIEEAENFGFKVIYADTDGFYSKWADDKEKLSKYELLEKTREFLKNINNTLPGEMELEFEGYFKRGIFVTKKKYALIDENEKITVKGLEVVRRDWSNVSKNTQKNVLNALLKEGSVENAKKVIQDTIKELKDGKVNNEDLLIHTQLTKRIEDYKTTAPHVEVAKKILKSGNRVNTGDVISYIITSGNKSISERAEILENAKNYDTNYYIENQILPPVIRLMEALGITKDELKDSKKQYTLHHFLK | incorporated 3′-O-azidomethyl-dCTP efficiently | increased 3′-O-azidomethyl-dCTP incorporation
– | at least two-fold | 9° N exo-L408P/Y409A/S411T: 9° N DNA polymerase mutant, SEQ ID NO:6 (protein, Thermococcus sp. 9 degrees N DNAP mutant) MILDTDYITENGKPVIRVFKKENGEFKIEYDRTFEPYFYALLKDDSAIEDVKKVTAKRHGTVVKVKRAEKVQKKFLGRPIEVWKLYFNHPQDVPAIRDRIRAHPAVVDIYEYDIPFAKRYLIDKGLIPMEGDEELTMLAFAIATLYHEGEEFGTGPILMISYADGSEARVITWKKIDLPYVDVVSTEKEMIKRFLRVVREKDPDVLITYNGDNFDFAYLKKRCEELGIKFTLGRDGSEPKIQRMGDRFAVEVKGRIHFDLYPVIRRTINLPTYTLEAVYEAVFGKPKEKVYAEEIAQAWESGEGLERVARYSMEDAKVTYELGREFFPMEAQLSRLIGQSLWDVSRSSTGNLVEWFLLRKAYKRNELAPNKPDERELARRRGGYAGGYVKEPERGLWDNIVYLDFRSPAPTIIITHNVSPDTLNREGCKEYDVAPEVGHKFCKDFPGFIPSLLGDLLEERQKIKRKMKATVDPLEKKLLDYRQRAIKILANSFYGYYGYAKARWYCKECAESVTAWGREYIEMVIRELEEKFGFKVLYADTDGLHATIPGADAETVKKKAKEFLKYINPKLPGLLELEYEGFYVRGFFVTKKKYAVIDEEGKITTRGLEIVRRDWSEIAKETQARVLEAILKHGDVEEAVRIVKEVTEKLSKYEVPPEKLVIHEQITRDLRDYKATGPHVAVAKRLAARGVKIRPGTVISYIVLKGSGRIGDRAIPADEFDPTKHRYDAEYYIENQVLPAVERILKAFGYRKEDLRYQKTKQVGLGAWLKVKGKK | incorporated 3′-O-azidomethyl-dCTP efficiently | increased 3′-O-azidomethyl-dCTP incorporation
